Values of other authors as cited in PMC6504839.
Read-outs that look alike come from different tables or passages of the source.

Tests used:
[1] = biological target: integrin αIIbβ3 (Homo sapiens) (UniProt P08514)
[2] = biological target: integrin αIIbβ3 (Homo sapiens) (UniProt P08514); remark: listed apart in the source

Substance | Kd [1] | Kd [2]
Disagregin (from UniProt P36235) | 0.04 µM | 
Savignygrin (from UniProt Q8MVZ3) |  | 0.06 µM
